Laboratory results published in US8754031B2, “Use of prolactin receptor antagonists in combination with an agent that inactivates the HER2/neu signaling pathway” (Oncolix, Inc., priority 2004, dated 2014).

Legend:
T47D cells = test: Cell proliferation assay (cell counting), comparison with estrogen and tamoxifen; type: cell-based, human
Procedure: Cell proliferation assays. hPRLA was tested for its ability to inhibit breast cancer cell proliferation in tissue culture. The human breast cancer cells were grown in corresponding culture media according to ATCC recommendations. Cells were maintained at 37° C. in a humidified atmosphere of 5% CO2 in air. The assay conditions were essentially as described by Ginsburg and Vonderharr (Cancer Res., 55:2591-2595 (1995)). For individual growth experiments, cells were plated in 12 well culture plates at a density of approximately 2×10^4/ml, 1 ml/well. Cells were then allowed to attach for one day (T-47D, MCF-7, HTB19, and HTB20 cells, except for HTB 123, which is a suspension cells), then the overlying media was removed and changed to serum-free conditions with media containing ITS (insulin-transferring-selenium-BSA-linoleic acid culture supplement; Collaborative Research Bedford, Mass.). Varying concentrations of hPRL alone or in combination with hPRLA were introduced. After an additional three days in culture, cells were harvested after brief trypsinization and counted in a cell counter.
For certain experiments, a mixed cell culture assay was used. In this assay, breast cancer cells were co-cultured with expressor cells which had been transfected with nucleic acid encoding PRL or a PRL variant and expressing those recombinant proteins. By varying the number of expressor cells, the amount of PRL or PRL variant present in the mixed cell culture was increased or decreased. A fixed number of breast cancer cells (T47D) were added to wells of a multi-well cell culture plate. In certain wells, which served as a control, no expresser cells were added. Then, increasing numbers of expresser cells (transfected L cells expressing either HPRL (L-PRL) or hPRLA (L-PRLA)) were added to breast cancer cell-containing wells to create mixed cultures. The same numbers of expressor cells were cultured in parallel (without T47D cells) to serve as controls. After culturing under standard conditions for a period of time, the number of cells present in the wells was counted, and the number of L cells in the corresponding control culture was subtracted. The resulting number could then be compared to the number of T47D cells in the T47D control culture to evaluate the effects of the recombinant product on breast cancer cell proliferation.

[1] = system: human breast cancer cell lines MDA-MB-134, T-47D, BT-474 and MCF-7; test: TUNEL assay, apoptosis by DNA fragmentation in breast cancer cell lines; type: cell-based
Procedure: The human breast cancer cell lines MDA-MB-134, T-47D, BT-474 and MCF-7 were obtained from ATCC. These breast cancer cell lines were chosen based on their PRLR levels. The cell line T-47D had the highest PRLR level followed by MDA-MB-134, BT-474, MCF-7 in decreasing order of PRLR levels (Peirce S and Chen W Y., 2001, J. Endocrinol. 171:R1-4).
T-47D cells obtained from ATCC were grown in RPMI 1640 (phenol red free), supplemented with 10% FBS (GIBCO BRL). BT-474 cells were grown in RPMI 1640 medium (phenol red free) supplemented with 10% FBS and ATCC recommended supplements. MCF-7 cells were grown in DMEM medium (phenol red free), supplemented with 10% FBS. The cells were grown at 37° C. in a humid atmosphere in the presence of 5% CO2. The MDA-MB-134 cells were grown in Leibovitz's L-15 medium supplemented with 20% FBS and grown in CO2 free atmosphere. The breast cancer cells were trypsinized (0.02% Trypsin—EDTA) and grown in their respective media (phenol red free) supplemented with 10% CSS (Charcoal stripped serum) for a week. Subsequently the cells were trypsinized again and plated onto an 8 chambered slide system (Lab Tek II) at a confluence of 60-70% per chamber. The next day treatments were performed on the breast cancer cells using their respective media (phenol red free), supplemented with 1% CSS. The MDA-MB-134 VI cells were grown in phenol red containing medium, but with the same serum conditions as the other breast cancer cells.
(§1) Terminal deoxynucleotidyl transferase mediated dUTP nick end labeling (TUNEL) assay. Nicks of the fragmented DNA are labeled at their 3-OH ends. The fluorescein-labeled dUTP is incorporated at the 3-OH ends by using the enzyme terminal deoxynucleotidyl transferase. After the assigned period of treatment the chambers were dismantled as per the manufacturer's instructions and the TUNEL assay (Apoptosis detection system, Fluorescein-Promega) was performed as per the manufacturer's instructions. The slide was examined under a FITC filter using an Olympus IX 70 microscope system.

prostate cancer cells = test: TUNEL assay, apoptosis in prostate cancer cells; type: cell-based; settings: two prostate cancer cells, 250 ng, 24 hours
Procedure: as §1
The samples were in duplicate and each sample constituted about 2 million cells.

[2] = in vivo
[3] = system: STAT5 phosphorylation in T-47D human breast cancer cells; test: hPRL induction of tyrosine phosphorylation of STAT5 protein; type: cell-based
Text: Assay of hPRL induction of tyrosine phosphorylation of STAT5 protein. […] Tyrosyl phosphorylation of STAT 5 is a receptor mediated event and is thought to be an important step in ligand-induced signal transduction (Wakao et al., EMBO J., 13:2182-2191 (1994); Kazansky et al., Mol. Endocrinol., 9:1598-1609 (1995); Waxman et al., J. Biol. Chem., 270:13262-13270 (1995)). This assay was used to evaluate the ability of hPRL and hPRLA to inhibit induction of STAT 5 phosphorylation by wild type PRL.
Briefly, human breast cancer cells were plated in 12-well plates. After pre-incubation in serum-free DMEM for 2-3 hours, the cells were exposed to various concentration of hPRL and hPRLA in serum-free DMEM. […]

HER2 = HER2 phosphorylation, immunoprecipitation and Western blot (Example 11); type: cell-based, human; settings: multiple breast cancer cells
Text: Human PRL signals via cell surface specific receptors that lead to JAK2/STAT/MAPK activation, which ultimately promotes cell proliferation. Phosphorylation of HER2 protein is a crucial step in the activation of its downstream signaling molecules such as Ras/MAPK cascade.
Immunoprecipitation experiments confirm the role of hPRL and G129R in regulation of phosphorylation of HER2 in multiple breast cancer cell lines. A panel of breast cancer cell lines with different levels of hPRLR and HER2 are treated with different doses of PRL (from ng/ml to ug/ml to establish a dose response curve) and terminated at the various time points (from 15 min to 24 hr to establish response time course). The optimal stimulatory dose and the response time courses are determined for each cell lines. Anti-HER2 antibody is used to immunoprecipitate HER2 in cell lysates and anti-phospho-HER2 antibody is used (Western blot) to identify the level of phosphorylated Her2 in response to the treatment.

[4] = system: Stat5a/b phosphorylation in T-47D cells; test: Inhibition of phosphorylation of Stat5a/b, Western blot; type: cell-based, human; settings: 48 hours, 10 μg, in the presence of hPRL 100 ng/ml (FIG. 6)
Procedure: FIG. 6. […] T-47D cells were cultured overnight at 60% confluency and were maintained in phenol red-free and serum-free RPMI-1640 for 72 hours before stimulation. […] Lane A is the control cells that are untreated. […] Activation of Stat5 was analyzed by WB with anti-phospho-specific antibodies in 50 μg protein extracts.

T-47D cells = test: Cell proliferation, ViaCount reagent and Guava PCA cytometer (viable cells); type: cell-based, human; settings: 24 hours of treatment, G129R 1 μg/ml, HERCEPTIN 20 μg/ml (FIG. 3)
Procedure: FIG. 3. […] The y-axis represents percent viable cells after each treatment.
This assay permits the determination of the number of total and viable cells in cultures. Cell proliferation was determined as a measure of the number of viable cells after 24 hours of treatment (FIG. 3).

[5] = Preclinical safety in animals; type: in vivo; settings: mice and rabbits, even at high doses
Text: Previously, the inventors developed a hPRLR antagonist, G129R. G129R is prolactin with a single amino acid substation; the glycine at position 129 of the native sequence is replaced with an arginine. G129R has anti-tumor effects in cultured human breast cancer cells and in nude mouse models.

CC/C(=C(\c1ccccc1)c1ccc(OCCN(C)C)cc1)c1ccccc1 [tamoxifen, reference compound]
proliferation of T47D cells relative to untreated control cultures (T47D cells): comparable inhibitory effect

estrogen [reference compound]
proliferation of T47D cells relative to untreated control cultures (T47D cells): increased proliferation

CC/C(=C(\c1ccc(O)cc1)c1ccc(OCCN(C)C)cc1)c1ccccc1 [4-OH-Tamoxifen, reference compound]
apoptosis, DNA fragmentation ([1]; T-47D, MCF-7 or BT-474 cells, concentration as high as 1 μM): did not induce apoptosis

B1: G129R: hPRLR antagonist: prolactin in which the glycine at position 129 of the native sequence is replaced with an arginine (protein)
chain: LPICPGGAARCQVTLRDLFDRAVVLSHYIHNLSSEMFSEFDKRYTHGRGFITKAINSCHTSSLATPEDKEQAQQMNQKDFLSLIVSILRSWNEPLYHLVTEVRGMQEAPEAILSKAVEIEEQTKRLLERMELIVSQVHPETKENEIYPVWSGLPSLQMADEESRLSAYYNLLHCLRRDSHKIDNYLKLLKCRIIHNNNC
apoptosis detected by TUNEL assay (prostate cancer cells): underwent apoptosis | apoptosis, DNA fragmentation ([1]; 250 ng, 24 hours treatment, all four PRLR positive breast cancer cell lines): induced apoptosis | DNA fragmentation in breast cancer cells ([1]; after 2 hours of treatment, 50 ng/ml): apparent | half-life [2]: 1 to 2 h | block of hPRL-induced phosphorylation of STAT5 proteins [3]: able to block the signal transduction induced by hPRL | phosphorylation of HER2 (HER2): able to specifically block HER2 phosphorylation | inhibition of Stat5a/b phosphorylation [4]: inhibitory effect | decrease in proliferative ability / cell number compared to untreated control cells (T-47D cells): 21.5% | safety in animals [5]: safe | proliferation of T47D cells relative to untreated control cultures (T47D cells): comparable inhibitory effect

B2: hPRL: human prolactin, wild type hormone, used as positive control and stimulus (protein)
chain: LPICPGGAARCQVTLRDLFDRAVVLSHYIHNLSSEMFSEFDKRYTHGRGFITKAINSCHTSSLATPEDKEQAQQMNQKDFLSLIVSILRSWNEPLYHLVTEVRGMQEAPEAILSKAVEIEEQTKRLLEGMELIVSQVHPETKENEIYPVWSGLPSLQMADEESRLSAYYNLLHCLRRDSHKIDNYLKLLKCRIIHNNNC
phosphorylation of HER2 (HER2): able to phosphorylate HER2 | proliferation of T47D cells relative to untreated control cultures (T47D cells): increased proliferation
